B1: hpE1-amh (hydrophilic E1 monobody with C-terminal AviTag-Myc-6xHis tag) (designed binder)
chain: SSDSPRNLEVTNATPNSLTISWYYPFCAFYYRITYGETGGNSPSQEFTVPRPSDTATISGLKPGQDYTITVYAVTCLGSYSRPISINYRTEIDKPSQ
notes: Expressed in E. coli BL21(DE3) from pETamh and purified by IMAC and size exclusion; The gene was cloned at an NdeI site that includes the ATG start codon; also called hpE1 monobody; hydrophilic monobody(hpE1); not shown: amh tag (AviTag-Myc-6xHis) of the pETamh vector linked to the C-terminus
B2: E1-amh (E1 monobody with C-terminal AviTag-Myc-6xHis tag) (designed binder)
chain: VSDVPRDLEVVAATPTSLLISWYYPFCAFYYRITYGETGGNSPVQEFTVPRPSDTATISGLKPGVDYTITVYAVTCLGSYSRPISINYRT
notes: Expressed in E. coli BL21(DE3) from pETamh and purified by IMAC and size exclusion; also called non-hydrophilic monobody(E1); E1 monomer; not shown: amh tag (AviTag-Myc-6xHis) of the pETamh vector linked to the C-terminus

Target: T1, recombinant EphA2 protein (R&D systems) (human, UniProt P29317 25-534, limits assumed)
T1 construct: Bought protein coated on the ELISA plate at 1 ug/mL; also called hEphA2; human antigen EphA2
T1 sequence (P29317 25-534 limits assumed): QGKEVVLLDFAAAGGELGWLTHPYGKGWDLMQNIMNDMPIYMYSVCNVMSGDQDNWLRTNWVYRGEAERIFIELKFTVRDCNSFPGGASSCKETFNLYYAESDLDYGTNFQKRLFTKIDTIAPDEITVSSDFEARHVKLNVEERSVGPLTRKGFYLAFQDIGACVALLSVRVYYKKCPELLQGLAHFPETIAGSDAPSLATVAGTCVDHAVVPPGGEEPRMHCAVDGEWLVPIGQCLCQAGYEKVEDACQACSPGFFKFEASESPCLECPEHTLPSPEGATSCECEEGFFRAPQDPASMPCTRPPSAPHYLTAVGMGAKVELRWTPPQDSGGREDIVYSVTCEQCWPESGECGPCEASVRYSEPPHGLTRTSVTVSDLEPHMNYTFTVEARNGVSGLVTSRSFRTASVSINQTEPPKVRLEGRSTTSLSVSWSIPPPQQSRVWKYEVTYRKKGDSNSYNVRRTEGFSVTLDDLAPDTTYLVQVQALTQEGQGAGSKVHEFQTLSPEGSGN
Assay: ELISA: recombinant EphA2 coated at 1 ug/mL, monobody-amh diluted twofold from 500 nM, detected with HRP anti-c-Myc antibody, OD 450 nm

| Binder | binding result |
| --- | --- |
| B1 | binds |
| B2 | binds |

— EP4806913A1 (Vaxcell-Bio Co., Ltd., dated 2025)
